Data: patent publication US20240293565A1 (BEIJING SINOTAU BIO PHARMACEUTICALS TECHNOLOGY, published 2024)

Assays:
[1] = molecular target: T1, human HER3 on the cell surface (human, UniProt P21860 20-1342); assay: cell-based or functional assay
[2] = molecular target: T1, human HER3 on the cell surface; assay: flow cytometry on SP2/0-HER3 cells
Protocol: ch3F8-MMAE maintains the similar binding affinity to ch3F8. ch3F8-MMAE binding affinity with HER3 was measured with SP2/0-HER3 by FACS.

T1 sequence (P21860 20-1342): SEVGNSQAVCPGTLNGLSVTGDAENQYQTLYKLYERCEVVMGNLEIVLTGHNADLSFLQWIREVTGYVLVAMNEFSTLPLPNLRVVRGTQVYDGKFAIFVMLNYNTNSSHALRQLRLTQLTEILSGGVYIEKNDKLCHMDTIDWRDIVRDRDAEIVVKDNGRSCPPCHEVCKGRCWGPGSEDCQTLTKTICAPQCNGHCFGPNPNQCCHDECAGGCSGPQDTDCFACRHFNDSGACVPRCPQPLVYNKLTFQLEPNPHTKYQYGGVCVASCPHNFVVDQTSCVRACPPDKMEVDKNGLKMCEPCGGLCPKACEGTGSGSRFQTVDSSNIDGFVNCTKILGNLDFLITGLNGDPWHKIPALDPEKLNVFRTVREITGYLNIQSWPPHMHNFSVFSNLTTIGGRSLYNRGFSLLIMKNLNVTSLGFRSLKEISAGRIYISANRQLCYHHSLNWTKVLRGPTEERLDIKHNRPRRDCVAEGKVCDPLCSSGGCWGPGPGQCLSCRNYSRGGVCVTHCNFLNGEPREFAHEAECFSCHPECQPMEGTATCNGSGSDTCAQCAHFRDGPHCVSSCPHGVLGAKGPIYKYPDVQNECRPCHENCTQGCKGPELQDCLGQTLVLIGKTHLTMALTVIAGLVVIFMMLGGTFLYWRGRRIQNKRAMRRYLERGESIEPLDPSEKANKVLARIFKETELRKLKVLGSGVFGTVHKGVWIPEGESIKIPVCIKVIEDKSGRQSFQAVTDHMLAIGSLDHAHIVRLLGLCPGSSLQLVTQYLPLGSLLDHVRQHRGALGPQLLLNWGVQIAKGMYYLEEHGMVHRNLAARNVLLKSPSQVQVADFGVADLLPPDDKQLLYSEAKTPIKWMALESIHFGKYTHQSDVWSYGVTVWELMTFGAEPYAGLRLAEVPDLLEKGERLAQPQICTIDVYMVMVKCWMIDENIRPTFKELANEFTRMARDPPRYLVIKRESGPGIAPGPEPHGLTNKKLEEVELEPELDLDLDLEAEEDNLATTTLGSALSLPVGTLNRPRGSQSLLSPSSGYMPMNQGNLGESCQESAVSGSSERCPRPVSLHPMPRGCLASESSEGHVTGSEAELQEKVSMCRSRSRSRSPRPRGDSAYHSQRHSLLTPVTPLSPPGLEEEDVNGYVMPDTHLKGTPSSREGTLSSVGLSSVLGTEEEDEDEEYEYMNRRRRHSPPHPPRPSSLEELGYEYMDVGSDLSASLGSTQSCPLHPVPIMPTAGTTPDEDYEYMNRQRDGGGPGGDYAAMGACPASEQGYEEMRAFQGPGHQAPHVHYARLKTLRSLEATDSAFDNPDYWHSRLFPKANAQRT

EC50 (read off the curve) [2]	Binder	cytotoxicity IC50 (nM), ATPlite, 7901 cells [1]	cytotoxicity IC50 (nM), ATPlite, HT-29 cells [1]	cytotoxicity IC50 (nM), ATPlite, MCF-7 cells [1]	cytotoxicity IC50 (nM), ATPlite, MDA-MB-453 cells [1]	cytotoxicity IC50 (nM), ATPlite, N87 cells [1]	cytotoxicity IC50 (nM), ATPlite, SK-BR-3 cells [1]	cytotoxicity IC50 (nM), ATPlite, SP2/0-HER3 cells [1]
–	ch3F8-MMAE (antibody, V domains shown, MC-VC-MMAE conjugated to cysteine residues of the antibody after reduction of disulfide bonds (positions not stated), DAR around 3.8) VH: DVQLQESGPGLVKPSQSLSLTCSVTGYSITSAYYWNWIRQFPGDKLEWMGYISYDGRNNFNPSLKNRISITRDTSKNQFFLKLNSVTSGDTATYYCARDGDYDYFDYWGQGTTLTVSS VL: DIQMTQTTSSLSASLGDRVTISCRASQDISNYLNWYQQKPDGTFKLLIYYTSILHSGVPSRFSGSGSGTDYSLTISNLEQEDIATYFCQQGDTLPPTFGAGTKLELK	5.74 nM	4.67 nM	9.49 nM	0.0401 nM	1.91 nM	0.159 nM	0.486 nM
~0.08 µg/mL	chimeric 3F8 (antibody, human IgG1, V domains shown, also called ch3F8; Ch3F8) VH: DVQLQESGPGLVKPSQSLSLTCSVTGYSITSAYYWNWIRQFPGDKLEWMGYISYDGRNNFNPSLKNRISITRDTSKNQFFLKLNSVTSGDTATYYCARDGDYDYFDYWGQGTTLTVSS VL: DIQMTQTTSSLSASLGDRVTISCRASQDISNYLNWYQQKPDGTFKLLIYYTSILHSGVPSRFSGSGSGTDYSLTISNLEQEDIATYFCQQGDTLPPTFGAGTKLELK	–	–	–	–	–	–	–
